B1: Amylosucrase, Q9ZEU2 (parent)
chain: MLTPTQQVGLILQYLKTRILDIYTPEQRAGIEKSEDWRQFSRRMDTHFPKLMNELDSVYGNNEALLPMLEMLLAQAWQSYSQRNSSLKDIDIARENNPDWILSNKQVGGVCYVDLFAGDLKGLKDKIPYFQELGLTYLHLMPLFKCPEGKSDGGYAVSSYRDVNPALGTIGDLREVIAALHEAGISAVVDFIFNHTSNEHEWAQRCAAGDPLFDNFYYIFPDRRMPDQYDRTLREIFPDQHPGGFSQLEDGRWVWTTFNSFQWDLNYSNPWVFRAMAGEMLFLANLGVDILRMDAVAFIWKQMGTSCENLPQAHALIRAFNAVMRIAAPAVFFKSEAIVHPDQVVQYIGQDECQIGYNPLQMALLWNTLATREVNLLHQALTYRHNLPEHTAWVNYVRSHDDIGWTFADEDAAYLGISGYDHRQFLNRFFVNRFDGSFARGVPFQYNPSTGDCRVSGTAAALVGLAQDDPHAVDRIKLLYSIALSTGGLPLIYLGDEVGTLNDDDWSQDSNKSDDSRWAHRPRYNEALYAQRNDPSTAAGQIYQGLRHMIAVRQSNPRFDGGRLVTFNTNNKHIIGYIRNNALLAFGNFSEYPQTVTAHTLQAMPFKAHDLIGGKTVSLNQDLTLQPYQVMWLEIA

Variants of: B1
Conditions: Neisseria polysaccharea; pH 7; Thermal; DSF; Tris 50 mM; structure 1G5A; whole UniProt chain shown

In order of falling “change of melting temperature, mutant - wild type (higher = more stable)” value:
1. H400P  2.2 °C
2. H400Y  2 °C
3. R292V  1.8 °C
4. R292K  1.6 °C
5. H400C  0.8 °C
6. H400G  0.8 °C
7. D515A  0.8 °C
8. D515I  0.6 °C
9. R292H  0.4 °C
10. H400T  0.4 °C
11. H400W  0.4 °C
12. H400E  0.4 °C
13. H400M  0.4 °C
14. H400S  0.2 °C
15. H400V  0.2 °C
16. D152A  0.2 °C
17. R454F  0.2 °C
18. R517A  0 °C
19. H400N  -0.2 °C
20. H400I  -0.2 °C
21. H195M  -0.2 °C
22. H195C  -0.2 °C
23. Y155F  -0.2 °C
24. R454A  -0.2 °C
25. H400Q  -0.4 °C
26. H400L  -0.4 °C
27. H195K  -0.4 °C
28. F258Y  -0.8 °C
29. Y155A  -1 °C
30. Y155N  -1 °C
31. H195N  -1.4 °C
32. D152E  -1.4 °C
33. H400K  -1.6 °C
34. H195A  -1.6 °C
35. D152I  -1.6 °C
36. R454E  -2.2 °C
37. H400F  -2.4 °C
38. H195G  -2.8 °C
39. H195Q  -3 °C
40. H195Y  -3.2 °C
41. F258N  -3.2 °C
42. H195D  -3.4 °C
43. H195T  -4 °C
44. H195V  -4 °C
45. H195R  -5 °C
46. H195W  -5.8 °C
47. H195L  -6.4 °C
48. H195I  -6.6 °C

From FireProtDB (doi:10.1002/pro.2375)
